Results published in patent US20130189225A1 (ASSOCIATION INSTITUT DE MYOLOGIE, published 2013).

T1: human C-reactive protein (CRP), native protein of human serum (human, UniProt P02741 19-224)
T1 construct: mature; also called human CRP; human homolog of CRP
T1 sequence: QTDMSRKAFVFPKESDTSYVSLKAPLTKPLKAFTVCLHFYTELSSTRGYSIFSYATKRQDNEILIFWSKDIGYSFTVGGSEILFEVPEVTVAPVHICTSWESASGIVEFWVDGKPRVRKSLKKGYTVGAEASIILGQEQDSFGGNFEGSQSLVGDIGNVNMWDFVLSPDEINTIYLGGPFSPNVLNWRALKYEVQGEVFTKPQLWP

T2: murine G3BP (mouse cyclophilin C-associated protein), native protein of mouse serum (mouse, UniProt Q07797 19-577)
T2 construct: also called G3BP murine protein homolog; CyCAP
T2 sequence: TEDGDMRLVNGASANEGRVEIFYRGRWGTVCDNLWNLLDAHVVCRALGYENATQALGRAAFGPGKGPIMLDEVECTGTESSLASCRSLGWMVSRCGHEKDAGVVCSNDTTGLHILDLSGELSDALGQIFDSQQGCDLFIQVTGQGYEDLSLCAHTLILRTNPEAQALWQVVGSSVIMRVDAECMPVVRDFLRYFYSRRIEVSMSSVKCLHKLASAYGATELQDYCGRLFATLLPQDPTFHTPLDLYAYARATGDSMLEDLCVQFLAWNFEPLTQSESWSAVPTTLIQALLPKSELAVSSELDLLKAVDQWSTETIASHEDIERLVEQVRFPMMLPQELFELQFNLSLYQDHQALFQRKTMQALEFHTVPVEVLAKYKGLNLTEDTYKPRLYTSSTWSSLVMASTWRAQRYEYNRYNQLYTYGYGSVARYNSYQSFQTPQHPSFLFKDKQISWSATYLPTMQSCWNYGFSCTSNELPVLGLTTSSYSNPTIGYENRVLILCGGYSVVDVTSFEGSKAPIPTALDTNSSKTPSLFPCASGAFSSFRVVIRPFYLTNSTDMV

B1: human galectin 3 binding protein (G3BP), native protein of human serum (other)
chain: VNDGDMRLADGGATNQGRVEIFYRGQWGTVCDNLWDLTDASVVCRALGFENATQALGRAAFGQGSGPIMLDEVQCTGTEASLADCKSLGWLKSNCRHERDAGVVCTNETRSTHTLDLSRELSEALGQIFDSQRGCDLSISVNVQGEDALGFCGHTVILTANLEAQALWKEPGSNVTMSVDAECVPMVRDLLRYFYSRRIDITLSSVKCFHKLASAYGARQLQGYCASLFAILLPQDPSFQMPLDLYAYAVATGDALLEKLCLQFLAWNFEALTQAEAWPSVPTDLLQLLLPRSDLAVPSELALLKAVDTWSWGERASHEEVEGLVEKIRFPMMLPEELFELQFNLSLYWSHEALFQKKTLQALEFHTVPFQLLARYKGLNLTEDTYKPRIYTSPTWSAFVTDSSWSARKSQLVYQSRRGPLVKYSSDYFQAPSDYRYYPYQSFQTPQHPSFLFQDKRVSWSLVYLPTIQSCWNYGFSCSSDELPVLGLTKSGGSDRTIAYENKALMLCEGLFVADVTDFEGWKAAIPSALDTNSSKSTSSFPCPAGHFNGFRTVIRPFYLTNSSGVD
notes: also called hu-G3BP; huG3BP
B2: rAAV-6 (recombinant adeno-associated virus vector with AAV-6 capsid) (other)
chain: MAADGYLPDWLEDNLSEGIREWWDLKPGAPKPKANQQKQDDGRGLVLPGYKYLGPFNGLDKGEPVNAADAAALEHDKAYDQQLKAGDNPYLRYNHADAEFQERLQEDTSFGGNLGRAVFQAKKRVLEPFGLVEEGAKTAPGKKRPVEQSPQEPDSSSGIGKTGQQPAKKRLNFGQTGDSESVPDPQPLGEPPATPAAVGPTTMASGGGAPMADNNEGADGVGNASGNWHCDSTWLGDRVITTSTRTWALPTYNNHLYKQISSASTGASNDNHYFGYSTPWGYFDFNRFHCHFSPRDWQRLINNNWGFRPKRLNFKLFNIQVKEVTTNDGVTTIANNLTSTVQVFSDSEYQLPYVLGSAHQGCLPPFPADVFMIPQYGYLTLNNGSQAVGRSSFYCLEYFPSQMLRTGNNFTFSYTFEDVPFHSSYAHSQSLDRLMNPLIDQYLYYLNRTQNQSGSAQNKDLLFSRGSPAGMSVQPKNWLPGPCYRQQRVSKTKTDNNNSNFTWTGASKYNLNGRESIINPGTAMASHKDDKDKFFPMSGVMIFGKESAGASNTALDNVMITDEEEIKATNPVATERFGTVAVNLQSSSTDPATGDVHVMGALPGMVWQDRDVYLQGPIWAKIPHTDGHFHPSPLMGGFGLKHPPPQILIKNTPVPANPPAEFSATKFASFITQYSTGQVSVEIEWELQKENSKRWNPEVQYTSNYAKSANVDFTVDNNGLYTEPRPIGTRYLTRPL

Columns and labels:
[1] = biological target: rAAV-2 (recombinant adeno-associated virus vector with AAV-2 capsid) (adeno-associated virus serotype 2, UniProt P03135 1-735); assay: rAAV immobilised on AVB-Sepharose beads incubated with seronegative human serum; Western blot for G3BP
Chain of rAAV-2 (recombinant adeno-associated virus vector with AAV-2 capsid) (P03135 whole entry): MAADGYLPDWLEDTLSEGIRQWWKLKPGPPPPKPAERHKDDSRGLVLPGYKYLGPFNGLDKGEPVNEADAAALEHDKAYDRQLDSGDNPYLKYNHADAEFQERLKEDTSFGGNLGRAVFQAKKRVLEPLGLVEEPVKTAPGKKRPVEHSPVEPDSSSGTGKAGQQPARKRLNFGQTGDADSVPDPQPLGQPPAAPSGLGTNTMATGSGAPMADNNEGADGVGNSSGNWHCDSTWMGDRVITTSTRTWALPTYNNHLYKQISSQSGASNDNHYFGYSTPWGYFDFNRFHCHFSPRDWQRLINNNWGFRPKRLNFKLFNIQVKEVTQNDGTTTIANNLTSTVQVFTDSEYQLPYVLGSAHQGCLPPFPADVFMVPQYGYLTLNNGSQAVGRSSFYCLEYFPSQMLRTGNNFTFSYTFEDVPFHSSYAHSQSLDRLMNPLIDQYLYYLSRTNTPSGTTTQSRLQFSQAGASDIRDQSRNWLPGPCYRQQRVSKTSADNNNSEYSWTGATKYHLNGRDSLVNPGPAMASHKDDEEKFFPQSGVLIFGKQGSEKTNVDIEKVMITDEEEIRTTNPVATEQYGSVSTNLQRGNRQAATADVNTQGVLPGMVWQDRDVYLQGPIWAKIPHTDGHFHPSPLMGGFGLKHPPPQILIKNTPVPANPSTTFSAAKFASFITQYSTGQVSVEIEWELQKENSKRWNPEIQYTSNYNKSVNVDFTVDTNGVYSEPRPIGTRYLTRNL

[2] = biological target: T1, human C-reactive protein (CRP), native …; assay: rAAV-6 immobilised on AVB-Sepharose incubated with human serum; PAGE and Western blot with human CRP specific antibodies
[3] = biological target: B1; assay: surface plasmon resonance imagery, rAAV immobilised on glass prism, hu-G3BP injected
[4] = biological target: T2, murine G3BP (mouse cyclophilin …); assay: AAV6 incubated with seronegative murine serum, ultracentrifugation, 2D gel

Row | Binder | binding result [1] | binding result [2] | Ka [3] [M⁻¹] | binding result [4]
1 | B1 | no binding | – | – | –
2 | B2 | – | no binding | ~1e+09 | no binding
